Test results reported in the nanobody polyreactivity screen of Harvey et al. (2022).

Assay: yeast display, Sf9 membrane polyspecificity reagent, FACS + sequencing; frameworks hold sequencing errors
Method in brief: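 Synthetic nanobody libraries on Saccharomyces cerevisiae BJ5465 were galactose-induced for 36–48 hours, stained 1 hour at 4 °C with 10% biotinylated, detergent-solubilized Sf9 membrane reagent and enriched on streptavidin microbeads. FACS then separated cells into low and high (top ~1%) gates by anti-HA (expression) and streptavidin (reagent binding) fluorescence. Genes were colony-PCR amplified, MiSeq 2 × 250 sequenced and CDR-length filtered. A clone's polyreactivity label is that of its gate of origin.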

Row | Sequence | polyreactivity (PSR sort gate)
1 | QVQLVESGGGLVQAGGSLRLSCAASGSTFRGNAMGWYRQAPGNEREFVAAITVSGGSTYYADSVKGRFTSSRDNAKNTVYLQMISLKPEDTAVYYCAGLTRGRGYDSWGQGTQVTVSS | high polyreactivity
2 | QVQLVESGGGLVQAGGSLRLSCAASGSTFRGYAMGWSRQAPGKERELVATITSGGSTKFADSVKGRVTISRDNAKNTVYLQMNSLKPEDTAVYYFNAGPRSWSPYRHWVDFWGQGTQVTVSS | low polyreactivity
3 | QVQLVESGGGLVQAGGSLRLSCAASGSTFRGYAMGWYRQAPGKERELVAAISWSGGSTYYADSVKGRFTISRDNAKNTVYLQMNSLKPEDTAVYYCNAVLYRFAYNYWGQGTQVTVSS | low polyreactivity
4 | QVQLVESGGGLVQAGGSLRLSCAASGSTFRGYVMGWYRQAPGKERELVAAITWGGGRTYYADSVKGRFTISRDNAKNTVYLQMNSLKPEDTAVYYCAARVRGQGSYQFGYWGQGTQVTVSS | high polyreactivity
5 | QVQLVESGGGLVQAGGSLRLSCAASGSTFRGYVMGWYRQAPGKERELVASINWDGGSTYYADSVKGRFTISRDNAKNTVYLQMNSLKPEDTAVYYCAARRVGGGFYTWRNPAYEYWGQGTQVTVSS | high polyreactivity
6 | QVQLVESGGGLVQAGGSLRLSCAASGSTFRIYAMGWYRQAPGKERELVAAISSGGRTNYADSVKGRFTISRDNAKNNVYLQMNSLKPEDTAVYYCNAVFLPTYHFDYWGQGTQVTVSS | high polyreactivity
7 | QVQLVESGGGLVQAGGSLRLSCAASGSTFRIYAMGWYRQAPGKERELVAAISWSSGSTYYADSVKGRFTISRDNAKNTVYFQMNSLKPEDTAVYYCATYARRSGYYYWGQGTQVTVSS | high polyreactivity
8 | QVQLVESGGGLVQAGGSLRLSCAASGSTFRIYAMGWYRQAPGKERELVAAITSGGDTNYADSVKGRFTISRDNAKNTVYLQMNSLKPEDTAVYYCAADGHSVYTELDYWGQGTQVTVSS | low polyreactivity
9 | QVQLVESGGGLVQAGGSLRLSCAASGSTFRKYAMGWYRQAPGKEREFVAAITWSTGTTYYADSVKGRFTISRDNAKNNVYLQMNSLKPEDTAVYYSAADSQPPHELDESIEHESWGQGTQVTVSS | low polyreactivity
10 | QVQLVESGGGLVQAGGSLRLSCAASGSTFRKYAMGWYRQAPGKEREFVAAITWSTGTTYYADSVKGRFTISRDNAKNTVYLQMNSLIPEDTAVYYCAADSQPPHELYESIEHESWGQGTQVTVSS | low polyreactivity
11 | QVQLVESGGGLVQAGGSLRLSCAASGSTFRLYAMGWYRQAPGKERELVAAISSRGGTTYYADSVKGRFTISRDNAKNTVYLQMNSLKPEDTAVYYCAAPRASQYGDDYWGQGTQVTVSS | high polyreactivity
12 | QVQLVESGGGLVQAGGSLRLSCAASGSTFRNNAMGWYRQAPGKERELVAAISRGGGSTYYADSVKGRFTISRDNAKNTVYLQMNSLKPEDTAVYYCARRPTGIYDYWGQGTQVTVSS | high polyreactivity
13 | QVQLVESGGGLVQAGGSLRLSCAASGSTFRNYAMGWYRQAPGKERELVAAISGSGGRTNYADSVKGRFTISRDNAKNTVYLQMNSLKPEDNAVYYCNARFPDWALSEISHSTTYGYWGQGTQVTVSS | low polyreactivity
14 | QVQLVESGGGLVQAGGSLRLSCAASGSTFRNYAMGWYRQAPGKERELVAAISGSGGRTNYADSVKGRFTISRDNAKNTVYLQMNSLKPEDTAVYYCNGRFPDWALSEISHSTTYGYWGQGTQVTVSS | low polyreactivity
15 | QVQLVESGGGLVQAGGSLRLSCAASGSTFRNYAMGWYRQAPGKERELVAAISRGDGTYYADSVKGRFTISRDNAKNTVYLQMNSLKPEDTAVYYCAAAYRGRQNPMGYWGQGTQVTVSS | high polyreactivity
16 | QVQLVESGGGLVQAGGSLRLSCAASGSTFRNYSMGWYRQAPGKERELVAAISGSGGRTNYADSVKGRFTISRDNAKNTVYLQMNSLKPEDTAVYYCNADGGPGYPRAYDYWGQGTQVTVSS | low polyreactivity
17 | QVQLVESGGGLVQAGGSLRLSCAASGSTFRPNAMGWYRQAPGKERELVAGISLNGTSTYYADSVKGRFTISRDNAKNTVYLQMNSLKPEDTAVYYCAADYQCGRGAEPYVFFDPEMDYWGQGTQVTVSS | low polyreactivity
18 | QVQLVESGGGLVQAGGSLRLSCAASGSTFRPSAMGWYRQAPGKERELVAAIRSGRTSYADSVKGRFTISRDYAKNTVYLQMNSLKPEDTAVYYCAKASRGGYYWGQGTQVTVSS | high polyreactivity
19 | QVQLVESGGGLVQAGGSLRLSCAASGSTFRPYAMGGYRQAPGKERELVARITGSGDSTYYADSVKGRFTISRDNAKNTVYLQMNSLKPEDTAVYYCAREFVFSLSGFDYWGQGTQVSVSS | low polyreactivity
20 | QVQLVESGGGLVQAGGSLRLSCAASGSTFRPYAMGWYRPAPGKEREFVASISNTGGSTSYADSVKGRFTISRDNAMNTVYFQMNSLKPEDTAVYYCAARFGYRPWYRMDYWGQGTQVAVSS | high polyreactivity
21 | QVQLVESGGGLVQAGGSLRLSCAASGSTFRPYAMGWYRQAPGKERELVARITKNGGSTYYADSVKGRFTISRDNAKNTVYLQMNSLKPEDTEVYYCAVRAWDPYTGKSDYWGQGTQVTVSS | low polyreactivity
22 | QVQLVESGGGLVQAGGSLRLSCAASGSTFRQYAMGWYRQAPGKERELVAAISTNGVSTRYADSVKGRFTISRDNAKNTVYLQMNSLKPEDTAVYSCAAGYRKSYTYYRYDYWGQGTQVTVSS | high polyreactivity

Row | Sequence | polyreactivity (PSR sort gate)
23 | QVQLVESGGGLVQAGGSLRLSCAASGSTFRQYAMGWYRQAPGKERELVAATTSSGGSTYYADSVKGRFTISRDNAKNTVYLQMNSLKPDDTAVYYCNVDGRSDGDDYWGQGTHVTVSS | low polyreactivity
24 | QVQLVESGGGLVQAGGSLRLSCAASGSTFRQYTMGWYRQAPGKERELVAAISRGCGNTYYADSVKGRFTISRDNAKNTVYLQMNSLKPEDTAVYYCAADRSYSGDSWGQGTQVTVSS | high polyreactivity
25 | QVQLVESGGGLVQAGGSLRLSCAASGSTFRRNAMGWYRQAPGKERELVAAITWRGGSTSYADSVKGRFTISRDNAKNTVYLQMNSLKPEDTGVYYCAAVKGHSQVLSYGYWGQGTQVTVSS | low polyreactivity
26 | QVQLVESGGGLVQAGGSLRLSCAASGSTFRRYAMGWNRKAPGKERELVAAISGRGGSTSYADSVTGRFTISRDNAKNTVFLQMNSLKPEETAVYYCAADDKYFYPGNGYWGQGTQVTVSS | high polyreactivity
27 | QVQLVESGGGLVQAGGSLRLSCAASGSTFRRYAMGWYRPAPGKERELVAVITSRGGSTYYADSVKGRFTISRDNAKNTVYLQMNSLKPEDTAVYYCAAGYTSGYWANHYTPRFYYWGQGTQVTVSS | high polyreactivity
28 | QVQLVESGGGLVQAGGSLRLSCAASGSTFRRYAMGWYRQAPGKERELVASISWSGGSTSYADSVKGRFTISRDTAKNTVYLQMNSLKPEDTAVYYCAAVRYYWGEYYARYAYEYWGQGTQVTVSS | high polyreactivity
29 | QVQLVESGGGLVQAGGSLRLSCAASGSTFRRYAMGWYRQAPGNERELVAAITGSGGRTYYADSVKGRFTISRDNAKNTVYLQMNSLKPEDTAVYYCAARGTHSRRRYYYWGQGTQVTVSS | high polyreactivity
30 | QVQLVESGGGLVQAGGSLRLSCAASGSTFRRYTMGWYRQAPGKERELVAAISSGGSTYYADSVKGRFTISLDNAKNTVYLQMNSLKPEDTAVYYCAAKNYPLTRYWRYDYSEYYYWGQGTQVTVSS | high polyreactivity
31 | QVQLVESGGGLVQAGGSLRLSCAASGSTFRSNAMGWYRQAPGKEGELVAAISSRVGTTNYADSVKGRFTISRDNAKNTVYLQMNSLKPEDTAVYYCAAQGWRYYRTVVPMDYWGQGTQVTVSS | low polyreactivity
32 | QVQLVESGGGLVQAGGSLRLSCAASGSTFRSNAMGWYRQAPGKERELVASITSRGGSTYYADSVKGRFTISRDNAKNTVYLQMNSLKPEDTAVYYCATARSYLTYSYHYDYWGQGTQVTVSS | low polyreactivity
33 | QVQLVESGGGLVQAGGSLRLSCAASGSTFRSNAMGWYRQAPGKESELVAAITRRGSTYYADSVKGRFTISRDNAKNTVYLQMNSVKPEDTAVYYCAARVPGYASGASGYSSYRYEYWGQGTQVTVSS | high polyreactivity
34 | QVQLVESGGGLVQAGGSLRLSCAASGSTFRSYAMGGYIQAPGKERELVAAISGRGGSTYYADSVKGRFTISRDNAKNPVYLQMNSLKPEDTAVYYCNAVPGVSYWGQGLDYWGQGTQVTVSS | low polyreactivity
35 | QVQLVESGGGLVQAGGSLRLSCAASGSTFRSYAMGWYRQAPGKERELVAAISRGGSTYYADSVKGRFTISRDNAKNTVYLQMNSLKPEDTAVYYCAARPPRGSWQYDYWGQGTQVTVSS | high polyreactivity
36 | QVQLVESGGGLVQAGGSLRLSCAASGSTFRSYAMGWYRQAPGKERELVAAISSTGGSTYYADSVKCRFTISRDTAKNTVYFQMNSLKPVDTAVYYCAADFLYYEYDYWGQGTQVTVSS | low polyreactivity
37 | QVQLVESGGGLVQAGGSLRLSCAASGSTFRSYAMGWYRQAPWKERELVAAISSSGGSTYYADSVKGRFTISRDNANNTVYLQMNSLKPEDTAVYICAADFLYYEYDYWGQGTQVTVSS | low polyreactivity
38 | QVQLVESGGGLVQAGGSLRLSCAASGSTFRSYTMGWYRQAPGKERELVAAISGRGGSTYYADSVKGRFTISRDNAKNTVYLQMNSLKPEDTAVYYCAAPYWKRVAWGFDYWGQGTQVTVSS | high polyreactivity
39 | QVQLVESGGGLVQAGGSLRLSCAASGSTFRSYTRGWYRQAPGKERELVAAIRKSGVRTYYADSVKGRFTISRDNAKNTVYLQMNSLKPEDTAVYYCNRPKWYDGDYWGQGTEVTVSS | high polyreactivity
40 | QVQLVESGGGLVQAGGSLRLSCAASGSTFRSYVMGWYRQAPGKERELVARITFNGGGTSYADSVKGRFTISRDTAKNTVYLQMNSLKPEDTAVYYCAARGYGWPKLFNYWGQGTQVTVSS | high polyreactivity
41 | QVQLVESGGGLVQAGGSLRLSCAASGSTFRTNVMGWYRQAPGKEREVVAAITKRGSITYYADSVKGRFTISRDNAKNTVYFQMNTLKPEDTAVYYCAARKVAVRGYAYWGQGTQVTVSS | high polyreactivity
42 | QVQLVESGGGLVQAGGSLRLSCAASGSTFRVNTMGWYRQAPGKERELVAAISWSTGTSTYADSVKGRFTISRDNAKNTVYLQMNSLKPEDTAVYYCAAGQPAWGVEYDSWGQGTQVTVSS | low polyreactivity
43 | QVQLVESGGGLVQAGGSLRLSCAASGSTFRVYAMGWYRQAPGKERELVAGISWRGGSTSYADSVKGRFTISRDNAKNTVYLQMNSLKPEDTAVYYCAVQRSYVGPRQYNYWGQGTQVTVSS | high polyreactivity
